Assay: soluble on expression in E. coli; label from the status in PepcDB or PDB records
For “MALSKIDTEIEQVDQEKYLRQATSYYQPLEKPLKYGPEVNSLSDLVAALHREFESNYVNIEMVNHLMLSYKSNPREWRKYAKFDRYTYTRNLVDAGNGKFNLLILCWGEGHGSSVHDHADSHCFMKMLKGDLREKRYEYPNRSARDNGRSHHPDGEIDSRELVEIGETPIAVNDVAYINDNLGLHRVENPSHSDTSVSLHLYCPPFDTCSVFQDNLKKTTAKVTFWSKYGVRTKQNEQLEHHHHHH”, the “soluble on expression in E. coli” value was “not soluble”. With “MALTDRLLDAWYKGHPALTLLRPLESLYRRVVDGKRAKFLAGEGDIYRAPVPVIVVGNITIGGTGKTPLILWMIEHCQRKGLRVGVVSRGYGAKPPSLPWRVQPDQSASEAGDEPLLIVQRSGVPLMIDPDRSRAVQALLAAEPLDLILSDDGLQHYRLARDLELVLIDAARGLGNRRCLPAGPLREPVERLSSVDALLYNGATADRDDGYAFTLKPSALINLRSGERQPVSYFPAGQALHAVAGIGNPQRFFNTLEGLHWRPVTHAFADHALYSVQALTFTPALPLVMTEKDAVKCRAFAADDWWYLAVDAVPSDAFVGWFDEQLLRLSPLEHHHHHH” the “soluble on expression in E. coli” value was “not soluble”. For “MALVKEVLVVLNRLSPFELQESWDNSGLNVGSENSEFSEIVACLEITLKIALNAPQNALIITHHPLIFKPLKTLNDEIYPGNILKILIQKNVSVISMHTNFDKTHLNKHFAHALLEFDGLVEKGLMLVKENANIEFDALVKKIKSSLGVGSLACVKSSQTIKDLAFVCGSGASMFSSLKAQSCLITGDVKYHDAMIAQSLGISLIDATHYYSERGFALIVAEILHSFNYLVTIENFKNPLQIILEHHHHHH”, the “soluble on expression in E. coli” value was “soluble”. In the case of “MALVRPFPIVQVVGFQNSGKTTFIERILEKASEQGVHLGCLKHHGHGGEPQTLTEGKDTDRYKAAGADVTAVEGAGVLQLTARRNWDLARLIELYQFLETDCLLIEGFKKAPYPKVVILSEKEDLEALQAVNIIAIIYRKKEHMTEHQGLPVFHADDPVAVDFVLSQLKGESA”, the “soluble on expression in E. coli” value is reported as “soluble”. For “MALYAVDKPLHLTSHDVVEEARRRLSTRRVGHTGTLDPLATGLLLLVTNESTKLVPFLSGEDKEYIAWVSFGATTPTLDAEGPISEEAPARFDRKDLEAALPRFLEVREQVPPLYSAIKVGGKRAYEAAREGKPLALGPRPVRYLEVELLAFDPEPIPHPIAPSARGWRLAERRGRPVRLPRPLGAYPTAVVRLVVGPGTYVRAFARDLGEMLGTKAFLSGLVRTRVGRVGLERAVALSDLSPEKAIPELDVLPFPVVELSHTEARRVLEGMPLPIPAMGYVTLVDSKRRLLAIAEGDGFKLKIRRVFAKEA”, the “soluble on expression in E. coli” value was “soluble”. With “MAMEIGEDEWKVCCGSSEFAKQMSTSGPLTSQEAIYTARDIWFNQVNVTDWLEAFSAHPQIGNTPSPSINSDFARRSVSEQSTAFATTSASALQELAEWNVLYKKKFGFIFIICASGRTHAEMLHALKERYENRPIVELEIAAMEQMKITELRMAKLFSDKAKVISETDSSSSPVSTKPQDRLRIIGGHLNVAAEAKAPKRSRPPITTHVLDVSRGAPAAGVEVHLEVWSGTTGPSFVHGGGGVWSSVGTSATDRDGRSGPLMDLVDALNPGTYRISFDTAKYSPGCFFPYVSIVFQVTESQKWEHFHVPLLLAPFSFSTYRGS” the “soluble on expression in E. coli” value was “soluble”. With “MAMVIPARNQMASQFLELPKRTSSLMAPTMVLQGHGGEIYTSQFSSDGSFLASAGYDQQIFLWNVFGECENFAVLKGHKGAIMEVKFNADSSHLVSAGTDKTVRVWDMETGSCIRNFKSHTDIVNSVDVNRRGPQMICSASDDGTVMVHDMRSKEAAKKFICKYQQTAVTFNDAADNVICGGIDNQIKVWDMLRNDVRYVLSGHRDTITSLSVSHNGNFLLSNSMDCSLMSWDIRPFVPAQRLVARYQGASHNFEKNLLKCGWSPRDNYITAGSADRFVYVWNAKSRACVYKLPGHLGSVNCTALHPTQQILLSAGSDKTIFLGELDLEDY” the “soluble on expression in E. coli” value was “not soluble”. In the case of “MANAYKQAGVDIEAGYEAVSRMKKHVQTTMRKEVLGGLGGFGGMFDLSKFALEEPVLVSGTDGVGTKLMLAFMADKHDTIGIDAVAMCVNDIVVQGAEPLFFLDYIACGKAEPSKIENIVKGISEGCRQAGCALIGGETAEMPGMYSTEEYDLAGFTVGIVDKKKIVTGEKIEAGHVLIGLASSGIHSNGYSLVRKVLLEDGELSLDRIYGRLELPLGEELLKPTKIYVKPILELLKNHEVYGMAHITGGGFIENIPRMLPEGIGAEIELGSWKIQPIFSLLQEVGKLEEKEMFNIFNMGIGMVVAVKEEDAKDIVRLLEEQGETARIIGRTVQGAGVTFNGGKAL”, the “soluble on expression in E. coli” value is reported as “soluble”. For “MANDIDRAGVAKAYARWAPIYDLVFGKVFDSGRQSTIAVADAIGGRVLDVGVGTGLSLSDYSKTTRLCGVDISEPMLRKAHERVRTLNLSNVDVLAVMDAKNLAFPANYFDAVVAQYVITAVPDPEATLDDFIRVLKPGGELILVNHIGAESGPRKLFELAFSPIARRLGWRPEFPWQRLVNWAARHRGVELAERRPMPPMGHFSLIRYRKLLEHHHHHH”, the “soluble on expression in E. coli” value was “not soluble”. For “MANIYLNIEADSAQELKEILSQLATDNVVEVTQSLNTADKKATEEVEKAAKKEPAKKKKATAKKKEEVSTASTSDTEPSKTGEKVAPTDSETEEVSATADLHLGATKADVQEAMRKAMDKGKRPMIKTCFSRYNAEKLSDLKEEHYGKFITDLETLVGE”, the “soluble on expression in E. coli” value was “not soluble”. For “MANKLTVLASVVAASSAMLSLSASAAESTLDKVLSQGFITCGVSTGLPGFSNPNAKGEWEGIDVEYCQAMAAAVLGDKTKVKFVPLTAKERFTALQSGEIDVLSRNTTWTLQRDSALGLNFVGVNYYDGQGFMVKKDLGVKSAKELNGASVCVQSGTTTELNLADYFRNSGMTYKPVVFDTAAQTSKGFDAGRCDVLTTDQSGLYALRLNLEKPDSAVVLPEIISKEPLGPVVRQDDDKWFNVAKWVLYAMVNAEEYGITSKNVDEMMKSDNPEVKRILGLDGPKGTGLGIRDDWSYQIVKQVGNYGESFDRTVGSGSPLKIDRGVNALWNAGGFMYAPPIR”, the “soluble on expression in E. coli” value was “not soluble”. In the case of “MANVLCNRARLVSYLPGFCSLVKRVVNPKAFSTAGSSGSDESHVAAAPPDICSRTVWPDETMGPFGPQDQRFQLPGNIGFDCHLNGTASQKKSLVHKTLPDVLAEPLSSERHEFVMAQYVNEFQGNDAPVEQEINSAETYFESARVECAIQTCPELLRKDFESLFPEVANGQTNDSDWLEHHHHHH”, the “soluble on expression in E. coli” value is reported as “soluble”. For “MAPDVFTVVAEPQRRRILERLRAGHASVGELVDQLALPQPTVSKHLRVLRQAGFVTCRTAAQQRIYSLHREPFDEFDAWLQPYRRLWANHLDALGRHLESKETPS”, the “soluble on expression in E. coli” value was “not soluble”. With “MAPEDGSLDRWQWYPKEKGEYSALYPRSWYEYKDVFKSELICEQFSPVWGGNYQESSYPLAVFDWTVHNPTDKPITLSIMLTWQNSVGWFTNAIKSPTVKLRDDGSPEYEYQPRWGDSTGNFNQWIQDGFRVGCLFNRVQPHEALREGEGQMCIASVSNPSVEVFYHNRWNPSGDGADVWDWFAGNGSLPDIQDETAAEPGEQIAGAICLRFTVRPGKTKKIPFLLAWDLPITEFAQGVTYYRRYTDFYGRNGKNVWSMIRTALKHSDTWRKKIEAWQAPILENPRLPDWLKMSLFNELYLLTQGGTLWTAATENDPVGQFGVCECMDYRWYESLDVRLYGSFGLLMHWPKLEQAVMLAFARAIPTEDPKERVIGYNLSLAPRKVKNATPHDLGAPNEHPWERSNYTAYQDCNLWKDLGSDFVLLVYRDFLLLPDADGEFLGECWPSIVAALDYLKGFDLDNDGIPENSGAPDQTFDDWRLQGISAYCGGLWIAALEAALVMGQYLLENPPQQTDLDAMEIQTAIARYETWLAQARSLYQDTLWNGEYYNLDSQSGSKVVMADQLCGQFYARLLNLPDVVEHHYAEKALAKVYDTCFLKFAHGELGAANGLLPDGSPQNPNDTHPLEVWTGINFGLAAFLIQMGMKEEALKMTETVVNQVYNNGLQFRTPEAITAVGTFRASHYLRAMAIWAVYGLLEGFSNLPIAPADDEVPTSDFYLEHHHHHH” the “soluble on expression in E. coli” value was “not soluble”. With “MAPNASCLCVHVRSEEWDLMTFDANPYDSVKKIKEHVRSKTKVPVQDQVLLLGSKILKPRRSLSSYGIDKEKTIHLTLKVVKPSDEELPLFLVESGDEAKRHLLQVRRSSSVAQVKAMIETKTGIIPETQIVTCNGKRLEDGKMMADYGIRKGNLLFLACYCIGG” the “soluble on expression in E. coli” value was “soluble”.
